Assay results from patent US20110028686A1, “Protein binding miniature proteins” (Yale University, priority 2000, published 2011).
Square brackets hold non-standard residues; d marks the D form. Primed or numbered codes have the meaning given here. Ends that are not written are not given here. acetamidofluorescein″ = acetamidofluorescein (5-iodoacetamidofluorescein attached to the C-terminal Cys); pS = N[C@@H](COP(=O)(O)O)C(=O)O; Sar = CNCC(=O)O

Tests used:
[1] = substrate: CBP KIX, wild type (Example 20) (UniProt P45481); experiment: FP, fluorescein-labelled PPKID4^P variant titrated with CBP KIX
FP with CBP KIX = substrate: CBP KIX, wild type (Example 20) (UniProt P45481); experiment: FP with CBP KIX
GST-KIXY650A = GST-KIXY650A (UniProt P45481); experiment: FP, 25 nM fluorescein-labelled peptide titrated with GST-KIXY650A, 25 C
Sequence of GST-KIXY650A (P45481 586-665 Y650A): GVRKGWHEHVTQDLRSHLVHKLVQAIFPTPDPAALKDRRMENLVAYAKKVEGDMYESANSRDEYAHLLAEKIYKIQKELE

Sequence of CBP KIX, wild type (Example 20) (P45481 586-665 limits assumed): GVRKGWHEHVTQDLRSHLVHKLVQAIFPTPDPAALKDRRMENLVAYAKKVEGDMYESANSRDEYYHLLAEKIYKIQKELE

Binder: G[Sar]SQPTYPGDDAPVRRL[pS]FFYILLDLYLDAPGVC(acetamidofluorescein″)-NH2 (designed binder) [PPKID4^P P2Z]
- Kd [1]: 830 nM
- ΔΔG relative to wild type PPKID4^P (FP with CBP KIX): 0.18 kcal/mol

Binder: GPSQPTY[Sar]GDDAPVRRL[pS]FFYILLDLYLDAPGVC(acetamidofluorescein″)-NH2 (designed binder) [PPKID4^P P8Z]
- Kd [1]: 780 nM
- ΔΔG relative to wild type PPKID4^P (FP with CBP KIX): 0.15 kcal/mol

Binder: GPSQ[Sar]TYPGDDAPVRRL[pS]FFYILLDLYLDAPGVC(acetamidofluorescein″)-NH2 (designed binder) [PPKID4^P P5Z]
- Kd [1]: 800 nM
- ΔΔG relative to wild type PPKID4^P (FP with CBP KIX): 0.16 kcal/mol

B1: KID-AB^P (peptide)
peptide: TDSQKRREILSRRP[pS]YRKILNDLSSDAPGVC-NH2
modifications: also: C-terminal Cys acetamidofluorescein-labelled in direct assays, unlabelled as competitor
- fold less stable than the wild type GST-KIX complex (GST-KIXY650A): 15 fold
